# Measurements taken from patent US20050266469.
# T1: peptide derived from the known CHK1 kinase substrate CDC25C (GLYRSPSMPENLNR)
# T1 chain: GLYRSPSMPENLNR
# B1: CHK1sv1-His-tagged protein (protein)
# chain: MAVPFVEDWDLVQTLGEGAYGEVQLAVNRVTEEAVAVKIVDMKRAVDCPENIKKEICINKMLNHENVVKFYGHRREGNIQYLFLEYCSGGELFDRIEPDIGMPEPDAQRFFHQLMAGVVYLHGIGITHRDIKPENLLLDERDNLKISDFGLATVFRYNNRERLLNKMCGTLPYVAPELLKRREFHAEPVDVWSCGIVLTAMLAGELPWDQPSDSCQEYSDWKEKKTYLNPWKKIDSAPLALLHKILVENPSARITIPDIKKDRWYNKPLKKGAKRPRVTSGGVSESPSGFSKHIQSNLDFSPVNSASRTPGSGWSKEHHHHHH
# Molecular target: T1, peptide derived from the known CHK1 …
protein,measurement,value
B1,Km (CDC25C substrate),120 µM
same,Vmax,36 nmol/min/µg
